Measured values reported in US20230279128A1 (SYNTHEKINE, published 2023).

T1: extracellular domain of hIFNgR2 (human, UniProt P38484 28-247)
T1 construct: also called hIFNgR2 ECD; hIFNgR2-ECD
T1 sequence: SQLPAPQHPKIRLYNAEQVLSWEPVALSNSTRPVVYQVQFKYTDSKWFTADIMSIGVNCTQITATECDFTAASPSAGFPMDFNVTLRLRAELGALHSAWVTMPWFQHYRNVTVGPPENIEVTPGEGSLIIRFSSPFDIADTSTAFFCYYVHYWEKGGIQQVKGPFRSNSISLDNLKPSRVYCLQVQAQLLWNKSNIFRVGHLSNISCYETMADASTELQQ

T2: extracellular domain of mIFNgR2 (mouse)
T2 construct: also called mIFNgR2 ECD; mouse IFNgR2 extracellular domain
T2 chain: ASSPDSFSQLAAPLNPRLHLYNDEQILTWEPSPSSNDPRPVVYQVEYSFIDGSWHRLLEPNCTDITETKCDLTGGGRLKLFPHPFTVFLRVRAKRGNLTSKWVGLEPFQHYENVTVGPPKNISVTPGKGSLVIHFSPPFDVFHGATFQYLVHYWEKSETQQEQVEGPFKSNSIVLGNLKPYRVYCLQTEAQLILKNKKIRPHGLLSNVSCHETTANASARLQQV


Assays:
[1] = target: T1, extracellular domain of hIFNgR2; assay: phage biopanning and periplasmic extract ELISA (PE-ELISA)
Experimental: Upon completion of the biopanning of Example 3, three 96-well plates of individual phage clones were isolated in order to perform periplasmic extract ELISA (PE-ELISA) on IFNgR2 coated plates to identify positive VHH binders that selectively bound IFNgR2. A 96-well plate was coated with IFNgR2 and PBS under the same conditions. Next, wells were blocked at 37° C. for 1 h. Then, 100 μl of extracted antibodies was added to each well and incubated for 1 h. Subsequently, 100 μl of anti-tag polyclonal antibody conjugated to HRP was added to each well and incubated at 37° C. for 1 h. Plates were developed with TMB substrate. The reaction was stopped by the addition of H2SO4. Absorbance at 450 nm was read on a microtiter plate reader. Antibodies with absorbance of the antigen-coated well at least threefold greater than PBS-coated control were considered to provide specific binding to IFNgR2. Positive clones were sequenced, and sequences analyzed to identify unique clonotypes

[2] = target: T2, extracellular domain of mIFNgR2; assay: flow cytometry, cross-reactivity

Row | binding result [1] | binding result [2] | Binder
1 | binds | binds | DR954 (VHH) VHH: QVQLVESGGGLVQAGGSLRLSCAAARRTLHNFAMAWFRQAPGKEREFVAAISKGGGSADYADSVKGRFTISRDNAKNTVYLQMNSLKPEDTAVYYCAANDLASYSDSSYTSTSRYDYWGQGTQVTVSS
2 | binds | binds | DR950 (VHH) VHH: QVQLVESGGGLVQAGGSLRLSCAASGLTTSSAALAWFRQAPGKERELDPTITSGGGSTYYADSVKGRFTISKDNAKNTLYLQMSSLKPEDTAVYYCAARFYSTTYYYREHEYSDWGQGTQVTVSS
3 | binds | binds | DR952 (VHH) VHH: QVQLVESGGGLVQAGGFLRLSCAASGRTFSSLAMAWFRQAPGKEREFVAAISRSGGSTDYADSVKGRFTISRDNAKSTLYLQMSSLKPEDTAVYYCAARDYSTLQYYNEYEYSDWGQGTLVTVSS
4 | binds | binds | DR946 (VHH) VHH: QVQLVESGGGLVQPGESLRLSCAASGPFTRYAMGWFRQAPGKEREFVAAISWSSGNTYYVDSVKGRFTISRDNAKNTMYLQMNSLKPEDTAVYYCAANEVATMSGPDDYWGQGTQVTVSS
5 | binds | binds | DR941 (VHH) VHH: QVQLVESGGGLVEAGGSLRLACAASGSIFRLNLMGWYRQAPGKQRELVAHVGTTGNTAYADSVKGRFTISKDDAKNMVFLQMNSLKPEDTAVYYCYADRWGQFSWGQGTQVTVSS
6 | binds | binds | DR951 (VHH) VHH: QVQLVESGGGLVQAGGSLRLSCAASGRTFGTSFGSLSMGWFRQAPGKEREFVAAISRNIGRTYYADSVKDRFTISRDNAKNTASLQMNSLEPEDTAVYNCAATNSYDDLRRSYAYDYWGQGTQVTVSS
7 | binds | binds | DR944 (VHH) VHH: QVQLVESGGGLVQAGDSLRLSCAASGRTFTFSTHNMGWFRQAPGKEREFVGGIMWTSRASYADSVKGRFTVSRDNAKNTVYLQMNSLKPEDTAVYYCAAAWYGNSGASYDYWGQGTQVTVSS
8 | binds | binds | DR948 (VHH) VHH: QVQLVESGGGLVQAGDSLRLSCVASGSIDSSYYVSWFRQAPGKERDLVAAINWGDSRTAYADSVKGRFTISRDNAKNTVYLQMHSLRPNDTAVYYCASRIGLGGPVVAAPTRYPYWGQGTLVTVSS
9 | binds | binds | DR943 (VHH) VHH: QVQLVESGGGLVQAGGSLRLSCVASGRTVGYGMAWFRQAPGKQRDVVAAITWSGTSTYYPDSVKGRFTISRDNAKNTMYLQMSSLKPEDTAVYYCAAGSRRRVGVDVGGYDYWGQGTQVTVSS
10 | binds | binds | DR938 (VHH) VHH: QVQLVESGGGLVQPGGSLRLSCTASGRPRTTYAMGWFRQAPGKEREIVAAISKAGGSTYVADSAKGRFAISKDNAKNTVYLQMNSLKPEDTAVYYCAARAGFAAQIFEYDYWGQGTLVTVSS
11 | binds | binds | DR955 (VHH) VHH: QVQLVESGGGLVQTGGSLRLSCAASGRTFSSYAMAWFRQAPGKEREFVAAISILGGSADYEDSVQGRFTISRDNAKNTMYLQMNSLKPEDTAVYYCAARRPAPSDSYWSSTSYAYWGQGTLVTVSS
12 | binds | binds | DR937 (VHH) VHH: QVQLVESGGGLVQPGGSLRLSCAASGRTFRSYSMGWFRQAPGKEREFVAAISWYSGTTYYADPVKGRFTISRDDAKNTLYLQMNSLKPEDTAVYYCAANEIATMESSNDYWGQGTQVTVSS
13 | binds | binds | DR949 (VHH) VHH: QVQLVESGGGLVQAGGSLRLSCAASESILRFNVMSWLRQAPGKQRELVAVITSGGSTNYADSVKGRFTISRDNAKNTVYLQMNSLKPEDTAVYYCAADESGQYYWGQGTQVTVSS
14 | binds |  | DR939 (VHH) VHH: EVQLVESGGGLVQAGGSMRLSCANSGRTFGTYAMGWFRQSPGKERERVASIDRDGSMSYYADSVKGRFTISGDNAKNTVYLQMNSLKPEDTAVYYCAASRRAVISLQTVDYWGQGTQVTVSS
15 | binds | binds | DR928 (VHH) VHH: QVQLVESGGGLVQAGGSLRLSCAASGRTFSNYRMGWFRQAPGKEREFVAAISRGGGTTLYADSVKGRFTISRDNAKNTVDLQMNRLKPEDTAVYFCAAGDFSTTWDEYNYWGQGTQVTVSS
16 | binds | binds | DR936 (VHH) VHH: EVQLVESGGGLVQAGGSLRLSCAASGRTFSSVAMAWFRQAPGKEREFVSAISSGGGSTDYADSVKGRFTISKDNAKNTMYLQMDSLKPEDTAVYYCAARDYSSRRYYQSRYEYDLWGLGTQVTVSS
17 | binds | binds | DR942 (VHH) VHH: QVQLVESGGGLVQAGGSLRLSCVASGRTFTGYAMGWFRQAPGKEREFVAVITWSGATTYYSASVKGRFTLSRDNAKNTVYLQMNSLKSEDTAVYYCAIRIRDGVSPENPNEYGYWGQGTQVTVSS
18 | binds | binds | DR957 (VHH) VHH: QVQLVESGGGLVQAGGSLRLSCAPSGRTFSSYAMAWFRQPPGKEREFVAAITVSGASTYYADSVKGRFTISRDNAKNSMYLQMNSLKPEDTAVYYCAAGGPGTIFPDYDYWGQGTQVTVSS
19 | binds | binds | DR953 (VHH) VHH: QVQLVESGGGLVQAGDSLRLSCAASGPTFSTYAMAWFRQAPGKEREFVAAITQSGRTTYYEDSVKGRFTISKDNAKNTLYLQMNSLQPEDTAVYYCAARDLWSDSPDDWRIYSFWGQGTQVTVSS
20 | binds | binds | DR958 (VHH) VHH: QVQLVESGGGLVQAGDSLTLSCTASGRTFSGYNMGWFRQAPGKERDFVAAINWIGGATYYADSVKGRFTISRDNAKNTVYLQMNSLKPEDTAVYYCHRYSEKFYSGKDYYTRDYDYWGQGTQVTVSS
21 | binds | binds | DR940 (VHH) VHH: EVQLVESGGRLVQTGGSLRLSCAASGRTFSNYAMGWFRQAPGKEREFVAAISWYSGNTYYADSVKGRFTISRDNAKNTMYLQMNSLKPEDTAVYYCAANQIATMISVGDYWGQGTLVTVSS
22 | binds | binds | DR956 (VHH) VHH: EVQLVESGGGLVQAGGSLRLSCAASGRTFSSLAMAWFRQAPGKEREFVAATTILGGSADYGDPVKGRFTISRDNAKNTVYLQMNSLKPEDTAVYYCTGRRPAPSDNYWSPASYAYWGQGTQVTVSS
23 | binds | binds | DR947 (VHH) VHH: QVQLVESGGGLVQAGGSLRLSCAASGGSFGRYTMGWYRQAPGKEREFVAVISWSGTNTYYADSVKGRFTISRDNAKNTMYLQMNDLKPEDTAVYYCAARETYYSHWDERMEYDYWGQGTQVTVSS
24 | binds | binds | DR945 (VHH) VHH: LVESGGGLVQLVQAGGSLRLSCAASGRTFSGYNMGWFRQAPGKEREFVAAIAWAGSRTYYTDSVKGRFTISRDNAKNTMYLQMNTLRPEDTAVYYCAAHDETYYRLDRVDLYTHWGQGTQVTVSS
25 | binds | binds | DR927 (VHH) VHH: QVQLVESGGGLVQAGGSLRLSCAASGRTFTSYAMNWFRQAPGKEREFVAAISWSSGNTYVADSVKGRFAISRDKAKNTMYLQMNSLAPEDTAVYYCAATTIATMSDEYTYWGQGTQVTVSS
26 | binds | binds | DR929 (VHH) VHH: QVQLVESGGGLVQAGGSLRLSCVASGRTFSSYAMGWFRQTPGKEREFVSAISRGGGSTDYADSVKGRFTISRDNAKNTVYLQMNNLKSEDTAVYYCALRAYSGRYYQFLEYDYWGQGTQVTVSS
